Earlier results on one substance are cited in PMC7761795.

The target of data set [1] is UBE2N (Homo sapiens) (UniProt P61088). Put plainly: SPR. The note with it: cited from earlier work.
Data set [2] shares this target. Kind of data set: fluorescence polarization. The note with it: cited from earlier work.

OTUB1, sequence (Q96FW1 2-271): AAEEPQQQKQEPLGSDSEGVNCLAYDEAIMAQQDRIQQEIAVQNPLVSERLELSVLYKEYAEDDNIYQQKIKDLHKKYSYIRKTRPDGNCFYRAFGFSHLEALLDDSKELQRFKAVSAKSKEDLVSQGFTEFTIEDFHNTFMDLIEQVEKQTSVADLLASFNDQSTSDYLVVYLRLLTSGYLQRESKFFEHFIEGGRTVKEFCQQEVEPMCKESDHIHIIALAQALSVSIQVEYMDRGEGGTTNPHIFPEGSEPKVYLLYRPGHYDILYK
UBE2N (Homo sapiens), sequence (P61088 whole entry): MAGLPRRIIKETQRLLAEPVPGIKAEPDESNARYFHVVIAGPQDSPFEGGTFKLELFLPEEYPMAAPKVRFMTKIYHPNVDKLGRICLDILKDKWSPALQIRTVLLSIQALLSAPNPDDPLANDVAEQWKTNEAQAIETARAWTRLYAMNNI

A word on the Kd: it is the equilibrium constant for the complex coming apart. Regarding OTUB1 (from UniProt Q96FW1), the Kd with UBE2N (Homo sapiens) [1] was 8.9 µM; with UBE2N (Homo sapiens) [2], 7.04 µM.
